Results on one molecule are retold here after patent US8642834B2, “Methods for the identification of agents that inhibit mesenchymal-like tumor cells or their formation” (OSI Pharmaceuticals, LLC, priority 2009, dated 2014).

The test system of test [1] is CFPAC-1 cells. In words: Induction of EMT by growth factors and cytokines, E-cadherin and vimentin immunoblotting. Particulars: CFPAC-1 cells treated 7 days with ligand. The test is classed as cell-based, human. As for the experimental part: The CFPAC1 cell line was cultured in DMEM media (Gibco #11960) supplemented with 10% FBS (Sigma), 2 mM L Glutamine (Gibco), at 37° C., 5% CO2. For 7 day treatments, cells were seeded on tissue culture plastic in complete growth media and allowed to attach overnight at cell densities that would provide approximately 60-80% confluence at end of experiment. Ligand and/or inhibitor was added the following day (Day 0) in complete growth media and incubated at 37° C., 5% CO2. Ligand source and concentrations used are as follows: [1] From R&D systems, SDF-1α (stromal derived factor-1 alpha) at 100 ng/ml, TRANCE (TNF-related activation induced cytokine) at 50 ng/ml, FGF1 (fibroblast growth factor acidic) at 10 ng/ml, FGF2 (fibroblast growth factor basic) at 10 ng/ml, BMP4 (bone morphogenetic protein 4) at 100 ng/ml, BMP7 (bone morphogenetic protein 7) at 100 ng/ml, IGF2 (insulin-like growth factor 2) at 100 ng/ml, OSM (Oncostatin M) at 100 ng/ml, NRG1 (Neuregulin-1) at 50 ng/ml, PDGFaa (Platelet derived growth factor a) at 50 ng/ml, PDGFbb (platelet derive growth factor b) at 30 ng/ml, Ang2 (Angiopoeitin 2) at 400 ng/ml, amphiregulin at 100 ng/ml, HMGB 1 (Human high-mobility group box 1 protein) at 50 ng/ml; [2] From Genscript, LIF (Leukemia inhibitory factor) at 20 ng/ml, GM-CSF (Granulocyte macrophage colony stimulating factor) at 25 ng/ml, M-CSF (Macrophage colony stimulating factor) at 50 ng/ml; [3] From Anaspec, PAR1 (Protease activated receptor 1 agonist) at 100 μM; PAR2 (Protease activated receptor 2 agonist; peptide SLIGKV-NH2, Cat. No. 60217-1) at 100 μM; PAR4 (Protease activated receptor […] agonist; peptide AYPGKF-NH2, Cat. No. 60218-1) at 100 μM; [4] From Peprotech, HGF (Hepatocyte Growth Factor) at 100 ng/ml; IL-31 (Interleukin-31) at 50 ng/ml, IL-33 (Interleukin-33) at 50 ng/ml, IL1-a (Interleukin-1 alpha) at 10 ng/ml, CTGF (Connective tissue growth factor) at 20 ng/ml, WISP1 (Wnt-1 inducible signaling pathway protein) at 20 ng/ml, PTHrP ([…] hormone-related protein) at 50 ng/ml, MCP1 (monocyte chemotactic protein-1) at 50 ng/ml; and [5] from Sigma, Fulvestrant at 1 μM. Fresh medium containing ligand and/or inhibitor was added 3-4 days after initial dose, and at Day 7 cells were harvested for western blot analysis.
Cells were harvested by washing once with PBS, and lysing on ice for 10 minutes with scraping (using a Cell Lifter, Corning Inc. #3008) in ice cold RIPA buffer (Sigma R0278) containing Protease inhibitor (Sigma P8340), Phosphatase inhibitors (Sigma P2850, P5726) and 200 μM Sodium Vanadate. Supernatents were micro-centrifuged at max speed, 4° C. for 10 minutes. Protein content was quantitated using the BCA method (Pierce #23225) and samples were normalized to total protein in Laemli buffer and heated at 100° C. for 10 minutes. SDS PAGE was run using a Bis-Tris gel system (Invitrogen NuPAGE) with MOPS buffer (Invitrogen NP0001), transferred onto nitrocellulose using the iBLOT system (Invitrogen) and blocked in PBS-T (0.1% Tween 20), 5% non-fat milk or BSA in guidance with primary Ab supplier requirements. All primary antibodies were incubated overnight at 4° C. in PBS-T (0.1% Tween 20) in either 5% non-fat milk or BSA, diluted to the following working dilutions: anti E Cadherin (Santa Cruz #sc-21791) 1:500 dilution; anti Vimentin (BD Biosciences #550513) 1:2000 dilution;); anti GAPDH HRP conjugate (Santa Cruz sc-25778) 1:1000 dilution; anti β-Actin (Sigma, A5441) 1:10,000 dilution. […]

Test [2] concerns CFPAC-1 cells. In words: MET/EMT reversion experiment (ligand withdrawal). Format: cell-based, human. Particulars: ligand 14 days, then removed; morphology and E-cadherin/vimentin immunoblot. The procedure:
Cells were cultured in complete medium with and without ligand for 14 days, during which time the media and ligand treatment was replaced every 3-4 days. 3 Days prior to the first time point (Day 14), cells were trypsinised, counted and seeded into plastic 35 mm dishes at appropriate seeding densities for the first 3 collection time points. 3 Days prior to the last of the 3 collection time points, the procedure was repeated for the second 3 collection time points, and so on until all time points were collected. Ligand was removed from all cultures at Day 14. At the time of harvest, cells were harvested as described in the western blotting section above. All samples were micro-centrifuged and stored at −80° C. until the end of the experiment, at which time all samples were processed for western blotting.
In general terms: A western blot detects proteins with antibodies after separation by electrophoresis.

B1: OSM: Oncostatin M from R&D systems, used at 100 ng/ml (protein, UniProt P13725 26-221, looked up)
Oncostatin-M: AAIGSCSKEYRVLLGQLQKQTDLMQDTSRLLDPYIRIQGLDVPKLREHCRERPGAFPSEETLRGLGRRGFLQTLNATLGCVLHRLADLEQRLPKAQDLERSGLNIEDLEKLQMARPNILGLRNNIYCMAQLLDNSDTAEPTKAGRGASQPPTPTPASDAFQRKLEGCRFLHGYHRFMHSVGRVFSKWGESPNRSRR
B1: the “Induction of EMT (E-cadherin down, vimentin up)” value in the test with CFPAC-1 cells [1] was “most complete EMT”. Also, in the test on CFPAC-1 cells [2], the “Reversal of EMT upon withdrawal of ligand” value was “can be reversed”.
